Paper PMC4154873, “Delineation of Interfaces on Human Alpha-Defensins Critical for Human Adenovirus and Human Papillomavirus Inhibition” (PLoS Pathogens, 2014)

B1: unnamed (parent)
chain 1: ATCYCRTGRCATRESLSGVCEISGRLYRLCCR
chain 2: MKRARPSEDTFNPVYPYDTETGPPTVPFLTPPFVSPNGFQESPPGVLSLRLSEPLVTSNGMLALKMGNGLSLDEAGNLTSQNVTTVSPPLKKTKSNINLEISAPLTVTSEALTVAAAAPLMVAGNTLTMQSQAPLTVHDSKLSIATQGPLTVSEGKLALQTSGPLTTTDSSTLTITASPPLTTATGSLGIDLKEPIYTQNGKLGLKYGAPLHVTDDLNTLTVATGPGVTINNTSLQTKVTGALGFDSQGNMQLNVAGGLRIDSQNRRLILDVSYPFDAQNQLNLRLGQGPLFINSAHNLDINYNKGLYLFTASNNSKKLEVNLSTAKGLMFDATAIAINAGDGLEFGSPNAPNTNPLKTKIGHGLEFDSNKAMVPKLGTGLSFDSTGAITVGNKNNDKLTLWTTPAPSPNCRLNAEKDAKLTLVLTKCGSQILATVSVLAVKGSLAPISGTVQSAHLIIRFDENGVLLNNSFLDPEYWNFRNGDLTEGTAYTNAVGFMPNLSAYPKSHGKTAKSNIVSQVYLNGDKTKPVTLTITLNGTQETGDTTPSAYSMSFSWDWSGHNYINEIFATSSYTFSYIAQE
chain 3: MRRAAMYEEGPPPSYESVVSAAPVAAALGSPFDAPLDPPFVPPRYLRPTGGRNSIRYSELAPLFDTTRVYLVDNKSTDVASLNYQNDHSNFLTTVIQNNDYSPGEASTQTINLDDRSHWGGDLKTILHTNMPNVNEFMFTNKFKARVMVSRLPTKDNQVELKYEWVEFTLPEGNYSETMTIDLMNNAIVEHYLKVGRQNGVLESDIGVKFDTRNFRLGFDPVTGLVMPGVYTNEAFHPDIILLPGCGVDFTHSRLSNLLGIRKRQPFQEGFRITYDDLEGGNIPALLDVDAYQASLKDDTEQGGGGAGGSNSSGSGAEENSNAAAAAMQPVEDMNDHAIRGDTFATRAEEKRAEAEAAAEAAAPAAQPEVEKPQKKPVIKPLTEDSKKRSYNLISNDSTFTQYRSWYLAYNYGDPQTGIRSWTLLCTPDVTCGSEQVYWSLPDMMQDPVTFRSTRQISNFPVVGAELLPVHSKSFYNDQAVYSQLIRQFTSLTHVFNRFPENQILARPPAPTITTVSENVPALTDHGTLPLRNSIGGVQRVTITDARRRTCPYVYKALGIVSPRVLSSRTF

Variants of: B1
Assay: SPR
Conditions: with partner chain of the complex shown, read off a plot; for Kd / screen value: steady-state binding curves at 80 sec of association time, 3-fold dilution series from 3 µM to 111 nM
[1] = defensin at 333 nM, immobilized rPenton (2115 RU), peak of sensorgram at end of association (about 180 sec)

| Variant | response [1] [RU] | Kd (immobilized rPenton (2115 RU)) [µM] | screen value (immobilized rPenton (2115 RU)) [RU] | response (steady-state response at 80 sec of association time, point at 3 µM defensin) [RU] |
| --- | --- | --- | --- | --- |
| chain 1 ATCYCRTGRCATRESLSGVCEISGRLYALCCR | 340 | 1.3 | 1100 | – |
| chain 1 ATCYCRTGRCATRESLSGVCEISGRAYRLCCR | 200 | 1.3 | 700 | 520 |
| chain 1 ATCYCRTGRCAARESLSGVCEISGRLYRLCCR | 630 | 1.5 | 2200 | – |
| chain 1 ATCYCRTGRCATRESLSGVCAISGRLYRLCCR | 480 | 1.6 | 1600 | – |
| chain 1 ATCYCRTGRCATRESLSGACEISGRLYRLCCR | 260 | – | 1200 | – |
| chain 1 ATCYCRAGRCATRESLSGVCEISGRLYRLCCR | 690 | 1.3 | 2100 | – |
| chain 1 ATCYCRTGRCATRESLSGVCEASGRLYRLCCR | 490 | 1.5 | 1600 | – |
